Substitutions are numbered along the chain they refer to.
B1: 8B4 scFv-Fc (Fc fusion)
VH: ELQLVESGGGLVQPGGSLRLSCAASGFTFSNAYLYWVRQVPGKGLEWVSGINPAGDGRAYATSVKGRFTISRDNAKNTLYLQMNTLESDDTAVYYCATASRVVAYDSWGQGTQVTVSS
VL: EIVLTQSPSSVTASVGEKVTINCKSSQSVESGSDQKSYLNWYQQRPGQSPRLLIYYASTQESGIPDRFSGSGSTTDFTLTISSVQPEDAAVYYCQQAYSAPFTFGQGTKVELK
B2: 12A3 scFv-Fc (Fc fusion)
VH: ELQLVESGGGLVQSGGSLRLSCAASGFTFSNYAMRWVRQAPGGRLEWVSSINIAGSSVVYADSVKGRFTISRDNAKNTLYLQMNSLKSEDTAVYYCAMQGFVYWGQGTQVTVSS
VL: DVVLTQTPGSLSVVPGESANISCKAGRSLVHSDGRTYLYWLLQKPGQSPQRLIYQVSNRSSGVPDRFTGSGSGTDFTLKITGVKAEDAGVYYCAQGTYYPVTFGQGTKVELK
B3: 12C3 scFv-Fc (Fc fusion)
VH: ELQLVESGGGLVQPGGSLRLSCAASGFTFSSYSMFWVRQSPGKGLERVSGINGGGDRSNYADSVRDRFTISRDNAKNTLYLQMNSLKSEDTAVYYCVIQGYAYWGQGTQVTVSS
VL: DVVLTQTPASLSVVPGESASISCKASQSLVHSDGKTYLYWLLQKPGQSPQRLIYQTSNRGSGVPDRFTGSGSGTDFTLDISGVKAEDAGVYYCAQATYSPHTFGSGTRLEIK
B4: 12C12 scFv-Fc (Fc fusion)
VH: EVQVQESGPGLVKPSQTLSLTCTVSGGSITTSYYAWTWIRQPPGKGLEWVGAIVYDGSTFYSPSLKSRTSISRDTSKSQFSLQLSSVTPEDTAVYYCARSYGLGLYDLWGQGTQVTVSS
VL: QAVLTQPPSVSGSPGQKFTISCTGSSSNIGDNYVNWYQHLPGTAPKLLIYSNSNRASGVPDRFSGSKSGSSASLTITGLQAEDEADYYCSSWDDSLSGVVFGGGTHLTVL
B5: 13G7 IgG1 (antibody, V domains shown)
VH: QVQLQESGPGLVKPSQTLSLTCTVSGGSISTTAPAWGWIRQSPGKGLDWMAVIAFDGSAYYSPSLKSRTLISRDTSKNQFSLQLSSVTPEDTAVYYCARLGGRNYPPYVELWGQGTLVTVSS
VL: QPVLTQPPALSVTLGQTAKITCQGGSLRVSYAHWYQQKPGQAPVLVSYDDDSRPSGIPERFSGSGSGATATLTISGAQAEDEGDYYCQSADSSGDNWVFGGGTHLTVL
B6: 12D1 scFv-Fc (Fc fusion)
VH: QLQLVESGGGLVQPGGSLRLSCAASGFTFGTYSMRWVRQVPRKALEWVSSISTDGGGTAYRDSVKGRFTISRDNAKNTLYLQMNNLKPEDTAIYYCVIAGYSDWGQGTQVTVSS
VL: SALDVVLTQTPGSLSVVPGESASISCKTSQSLTHSDGKTYLYWLLQKPGQSPQRLIYQVSNRGSGVPDRFTGSGSGTDFTLKISGVKAEDAGMYYCAQATYYPHTFGSGSRLEIER
B7: 12D4 scFv-Fc (Fc fusion)
VH: QLQLVESGGGLVQPGGSLRVSCAASGFTFSSSNMRWVRQVSGKGLEWVSTISPDGGKTLYADSVKGRFTISRDNAKNTLHLQMVSLKPEDTALYYCVKAGYDYWGQGTQVTVSS
VL: B3 VL with D1A, V2T, V3M, T7S, A9G, T56V, R59Q, D79K, S99A, T102S
B8: 12E12 scFv-Fc (Fc fusion)
VH: EVQLVESGGDLVQPGGSLRVSCAASGLTFSNIYMSWVRQAPGKGLEWVSAINTAGTVTYYADSVKGRFTISRDNAKNTLYLQMNSLKPEDTAHYYCTTGEVDWGKGTLVTVSS
VL: QTVVTQEPSLSVSPGGTVTLTCGLSSGSVTSVTYPGWYQQKPGQAPRTLIYNTNSRFSGVPNRFSGSISGNKAALTITGALPEDEADYYCSVYIGGGIYPAVFGGGTHLTVL
B9: 13C7 scFv-Fc (Fc fusion)
VH: QLQLVESGGGLVQPGGSLRLSCAASGGTFSRYYMSWVRQAPGKGLEWVSSIYKDGSNTYYADSVKGRFTISRDNAKNTLYLQMNSLKSEDTAVYYCAKALRAEYDYWGQGTQVTVSS
VL: NFMLTQPPSVSGTLGKTVTISCAGTSSDIGGYNYVAWYQQLPGTAPKLLISEVNKRASGIPDRFSGSKSGNTASLSISGLQSEDEADYYCASYRSSNSYVFGGGTKLTVL
B10: 13G7 scFv-Fc (Fc fusion)
VH: B5 VH
VL: B5 VL
B11: 14C4 scFv-Fc (Fc fusion)
VH: QLQLVESGGGLVQPGGSLRLSCAASGFTFGNYDMSWVRQAPGKGPEWVSVINSDGDGTYYVDSVKGRFTISRDNAKNTLYLQMNSLKPEDRAVYYCAIANLGLWGQGTLVTVSS
VL: ATMLTQSPGSLSVVPGESASISCKATQSLVHSDGKTYLSWLLQKPGQSPQRLIYQVSNRGSGVPDRFTGSGSGTDFTLKISGVKAEDAGVYYCAQAPYWTFGQGTKLEIK
B12: 14C7 scFv-Fc (Fc fusion)
VH: QVQVQESGPGLVKPSQTLSLTCTVSGGSITTNSYYWSWIRQPPGKGLEWMGAIDYSGDTYYSPSLKSRTSISRDTSKNQFTLQLTSVTPEDTAVYYCVSRIPTGEYWGQGTQVTVSS
VL: QTVVTQEPSLSVSPGGTVTLTCGLNSGSVTSSNYPDWYQQTPGQAPRLLIYNTNSRHSGVPSRFSGSISGNKAALTITGAQPEDEADYYCALYMGSDSVVFGGGTHLTVL
B13: 14G4 scFv-Fc (Fc fusion)
VH: QVQLVESGGGLVQPGGSLRLSCAASGFAFSRYTMNWVRQAPGKGLEWLSAISPDGGKTIDADSVKGAFASSRDNTMNTLYLDMNSLKPEDAAVYYCVAGHNMDYWGKGILVTVSS
VL: B3 VL with A9G, T56V, R59Q, D79K, S99T, H101R, S105Q, R108T, I111V
B14: 5E5 IgG1 (antibody, V domains shown)
VH: B6 VH
VL: ATMLTQSPGSLSVVPGESASISCKTSQGLVHSDGKTYFYWFLQKPGQSPQQLIYQVSNRASGVPDRFTGSGSGTDFTLKISGVKAEDAGVYYCAQGTYYPHTFGSGTRLEIK
B15: 8B7 scFv-Fc (Fc fusion)
VH: EVQVQESGPGLVKPSQTLSLTCTVSGASITNRRYAWTWIRQPPGKGLEWMGVIVYDGNTHVSPSLRSRTSISRDTSKNQFSLQLSSLTPEDTAVYYCARVLLLRDPLSLDYWGQGTQVTVSS
VL: SSALTQPPSMSGTLGKTLTISCAGTSSDIGAYNFVSWYQQLPGTAPKLLIYDIDKRASGIPDRFSGSKSGNTASLSISGLQSEDEADYYCAAYGSRDNVVFGGGTHLTVL
notes: scFv-Fc format
B16: 11H1 scFv-Fc (Fc fusion)
VH: ELQLVESGGGLVQPGGSLRLSCAASGFTFSSYSMRWVRQAPGKGLEWLSSIKSDGSITSYADSVKGRFTMSRDNAKNTLYLQMNSLKSEDTAMYYCTNQGYINWGQGTQVTVSS
VL: ATMLTQSPGSLTIVPGESASISCRASQSLIHSAGKTYFYWLLQKPGQRPQLLIYQVSNRESGVPDRFTGSGSGTDFTLKISGVKAEDAGVYYCAQGTYNPKTFGQGTKLEIK
notes: scFv-Fc format
B17: 5A7 scFv-Fc (Fc fusion)
VH: B15 VH
VL: B15 VL
notes: scFv-Fc format
B18: 7A9 scFv-Fc (Fc fusion)
VH: B15 VH
VL: B15 VL
notes: scFv-Fc format

biological target: T1, human ApoC3 (huApoC3), native protein purified from human serum (human, UniProt P02656 21-99); experiment: cell-based or functional assay
T1 sequence (P02656 21-99): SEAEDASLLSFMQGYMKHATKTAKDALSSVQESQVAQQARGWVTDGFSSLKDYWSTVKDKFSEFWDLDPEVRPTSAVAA

Row | attenuation of the ability of ApoC3 to inhibit VLDL uptake by HepG2 cells [%] | EC50, attenuation of ApoC3-mediated LPL inhibition (NEFA production) [nM] | Binder
1 | ~60 | – | B1
2 | ~100 | – | B2
3 | ~85 | – | B3
4 | ~100 | – | B4
5 | – | ~3000 | B5
6 | ~60 | – | B6
7 | ~60 | – | B7
8 | ~40 | – | B8
9 | ~95 | – | B9
10 | ~100 | – | B10
11 | ~60 | – | B11
12 | ~100 | – | B12
13 | ~100 | – | B13
14 | – | > 5000 | B14

biological target: T1, human ApoC3 (huApoC3), native protein …; experiment: SPR Biacore, huApoC3 on chip, scFv-Fc as analyte
Experimental: This example describes characterization of anti-ApoC3 antibodies regarding their affinity to ApoC3 under neutral conditions using an SPR-based assay using a Biacore 3000 instrument (Biacore AB). Native huApoC3 protein was immobilized on a CM5 chip. The immobilization was performed in accordance with the method provided by Biacore using the NHS/EDC kit (Biacore AB): after activation of the chip, a solution of 60 μg/ml of human ApoC3 in 10 mM acetate buffer with pH of 4.5 was prepared and injected until the surface density reached approximately 1000 RU. Capturing of the human ApoC3 on the streptavidin coated chip (SA) was performed at pH 7.4 in accordance with a method provided by Biacore via injection of 20 μl 10 μg/ml biotinylated human ApoC3 thereby reaching the surface density of approximately 500 RU. […] After the dissociation, the flow cell surfaces were regenerated by injecting 10 μl of 10 mM […]/1 M NaCl and 10 μl of 10 mM glycine at pH1.5. The resulting sensorgrams were analyzed using the BIAevaluation 4.1 software using Langmuir 1:1 binding model to derive binding kinetics. Data was zero adjusted and the reference cell sensorgrams were subtracted.
A number of scFv-Fc antibodies were examined in this assay. The association rate (ka), dissociation rate (kd), analyte binding capacity (Rmax), equilibrium association constant (KA) and equilibrium dissociation constant (KD) of these antibodies are shown in Table 5.

Row | Ka [M⁻¹] | Kd [nM] | koff [s⁻¹] | kon [M⁻¹ s⁻¹] | Binder
15 | 4.16e+09 | 0.24 | 0.000675 | 2.81e+06 | B15
16 | 5.89e+08 | 1.7 | 0.000207 | 122000 | B16
17 | 2.08e+09 | 0.48 | 0.000647 | 1.35e+06 | B17
18 | 3.87e+09 | 0.258 | 0.00067 | 2.59e+06 | B18
